The target of assay [1] is PRPF40A N-ext-WW12 (N-terminally extended WW tandem, residues 56-236) (human) (UniProt O75400). The assay is described as follows: ITC; PRPF40A construct (WW12, N-ext-WW12 or its mutant) in the cell, GB1-SF1 or GB1-SF3A1 construct in the syringe (as shown in Supplementary Figures 16 and 21); 25 °C, 20 mM sodium phosphate pH 6.5, 100 mM NaCl; one-site binding model; at least duplicates; affinities apparent. (In ITC the heat of successive injections is recorded.)

In assay [2] the target is PRPF40A N-ext-WW12 mutant (residues 56-236, PPVP/PALPP motifs changed to alanines) (human) (UniProt O75400). The assay is described as above.
Assay [3] has as its target GB1-SF1(596-611) 16-mer peptide. The assay is described as follows: ITC; MicroCal PEAQ-ITC, 25 °C, 20 mM sodium phosphate pH 6.5, 100 mM NaCl; PRPF40A constructs and GB1-tagged SF1 16-mer peptides; who was in the syringe is not stated for these panels (Fig. 2B, Fig. 5C); one-site model.
The target of assay [4] is GB1-SF1 16-mer peptide 425-440. The assay is described as follows: ITC; GB1-peptide or GB1-SF1 construct in the cell, PRPF40A WW12 in the syringe (as shown in Supplementary Figures 7 and 16A); 25 °C, 20 mM sodium phosphate pH 6.5, 100 mM NaCl; one-site binding model; at least duplicates; affinities apparent.
The target in assay [5] is GB1-SF1 16-mer peptide 470-485. The description is as above.
For assay [6], the target named is GB1-SF1 16-mer peptide 478-493. The description is as above.
Assay [7] has as its target GB1-SF1 16-mer peptide 575-590 (SF1 PRPF40A WW binding site, GB1-tagged). The description is as above.
The target of assay [8] is GB1-SF1 16-mer peptide 596-611. The assay is described as above.
Assay [9] has as its target GB1-SF1 16-mer peptide 623-638. The description is as above.

By stoichiometry N is commonly meant the number of molecules, sites or subunits per partner or assembly. Regarding “GB1-SF1 16-mer peptide 575-590 (SF1 PRPF40A WW binding site, GB1-tagged)”, the values for the Kd in assay [1] and in [2] were 8.71 µM and 2.21 µM, respectively. Also, the stoichiometry N in [1] turned out to be 0.88 sites; in assay [2] it was 0.84 sites.
With “PRPF40A WW12 (tandem WW domains, residues 141-236) (from UniProt O75400 141-236) (domain or fragment)”, the Kd in assay [3] came to 65.9 µM; in [4] it was 20.2 µM; in assay [5], 13.9 µM; in assay [6], 9.59 µM; in assay [7] it was 1.4 µM; in assay [8] it was 65.9 µM. Further, the Kd in assay [9] stood at 23.3 µM. For the same substance, the stoichiometry N in assay [4] turned out to be 0.87 sites; in [5], 0.9 sites; in assay [6], 0.8 sites; in [7], 1 sites; in assay [8], 1.1 sites; in [9] it was 0.95 sites.

For the origin of these results see PMC11079029, “Intramolecular autoinhibition regulates the selectivity of PRPF40A tandem WW domains for proline-rich motifs” (Nature Communications, 2024).
